Reference: the supplement of paper PMC10724198
± gives the standard deviation of the averaged measurements.

test system: Saccharomyces cerevisiae; assay: protein stability index of tFT-peptide fusion (C-terminal peptide) (PSI (0-1 scale)); higher = more stable (slower turnover); details: genetic background: wild type; temperature: 30 C
Procedure: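 Multiplexed protein stability (MPS) profiling in S. cerevisiae. Random 12-aa peptides (tFT-X12 library) are fused to the C-terminus of a sfGFP-mCherry tandem fluorescent timer, after mCherry and a GGGS linker. Cells are FACS-sorted into 8 mCherry/sfGFP bins and deep-sequenced. The protein stability index (PSI) is the read-weighted bin average, scaled from 0 (unstable) to 1 (stable). Only peptides with >10 reads are reported; cells were grown at 30 °C in SC-His with glucose.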
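Note: PSI is a weighted mean of sequencing reads over stability bins, variants kept only with over 10 reads, mCherry proximal and sfGFP distal, peptide attached via GGGS linker.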

First: KTKGPKSKPKRK
Second: KTKKNKITFKNK
The protein stability index of the first is lower: 0.6563 ± 0.0046 for the first, 0.759 ± 0.02 for the second.

KTNIKKQSKISK and KTQKNQKLTRSK are within error of each other in protein stability index: 0.778 ± 0.18 for the first, 0.769 ± 0.12 for the second.

KTRKKEKKPSRK and KVDGTIDSRVMS are within error of each other in protein stability index: 0.6233 ± 0.0036 for the first, 0.683 ± 0.089 for the second.

KVRAGLGIRITQ and KVRSFGGLFVKG are within error of each other in protein stability index: 0.674 ± 0.021 for the first, 0.68 ± 0.022 for the second.

KVSCGGAGDSLG and KVSIINAWKEKI are within error of each other in protein stability index: 0.693 ± 0.022 for the first, 0.679 ± 0.044 for the second.

KVVVWRAKTSHS and KWLAQLEHEKYN are within error of each other in protein stability index: 0.692 ± 0.068 for the first, 0.696 ± 0.025 for the second.

First: KWMKKIKTRRQI
Second: KYHIKKPSTLEI
The protein stability index of the first is lower: 0.609 ± 0.018 for the first, 0.683 ± 0.01 for the second.

First: KYKKNNNKKQNQ
Second: KYYRKKNIEKEN
The protein stability index of the first is higher: 0.704 ± 0.097 for the first, 0.575 ± 0.017 for the second.

LACCGGLVTWVL and LACTSPLLLRFR are within error of each other in protein stability index: 0.6891 ± 0.0046 for the first, 0.673 ± 0.023 for the second.

LADFMFCALPLC and LADRTREFSNPA are within error of each other in protein stability index: 0.658 ± 0.045 for the first, 0.6466 ± 0.0054 for the second.

LAFFPRGTPPHS and LAGGGWGGACGE are within error of each other in protein stability index: 0.67 ± 0.029 for the first, 0.655 ± 0.017 for the second.

Going from LAGLLMSPNMSP to LAGVEMWVGLEV, the protein stability index falls from 0.697 ± 0.025 to 0.61 ± 0.059.

Compared with LALKYLGQLIGA, LALPSWVRYASR is higher in protein stability index: 0.594 ± 0.024 for the first, 0.694 ± 0.016 for the second.

Going from LALRMLWSIVRT to LAMALRGGLYFS, the protein stability index rises from 0.599 ± 0.079 to 0.701 ± 0.011.

LAPALPPQPPSH and LAPPLPMPPPLA are within error of each other in protein stability index: 0.658 ± 0.023 for the first, 0.682 ± 0.02 for the second.

LAPPPAAPLSHS and LAPPPPARPALP are within error of each other in protein stability index: 0.697 ± 0.018 for the first, 0.699 ± 0.0076 for the second.

LAPPTTAGPRPP and LARASLVLPPSG are within error of each other in protein stability index: 0.599 ± 0.01 for the first, 0.648 ± 0.093 for the second.

Compared with LASPDPSPLVVP, LASSVRSSASVP is higher in protein stability index: 0.678 ± 0.02 for the first, 0.739 ± 0.034 for the second.

Compared with LAYITTTPALAS, LCAPPPSLSPFV is higher in protein stability index: 0.581 ± 0.048 for the first, 0.708 ± 0.025 for the second.

LCCPVFFAFCFP and LCFRSLFLCSLF are within error of each other in protein stability index: 0.683 ± 0.094 for the first, 0.577 ± 0.13 for the second.

Going from LCFVFDLASLCW to LCGPKIGFVVSR, the protein stability index rises from 0.539 ± 0.04 to 0.704 ± 0.04.

Going from LCGVWWGWWVGL to LCLDNFSSSWPI, the protein stability index rises from 0.576 ± 0.026 to 0.719 ± 0.02.

LCPSLLFSSSDP and LCPVGLGFFVGL are within error of each other in protein stability index: 0.699 ± 0.024 for the first, 0.666 ± 0.056 for the second.

Compared with LCRYFLRGVINT, LCTCRLSDVRIG is higher in protein stability index: 0.64998 ± 0.00026 for the first, 0.6748 ± 0.0033 for the second.

LDLLIVNFFNLV and LDLLRCIQHCVV are within error of each other in protein stability index: 0.69 ± 0.13 for the first, 0.637 ± 0.027 for the second.

LDPPHTLPRSAP and LDSSPPCSSNCD are within error of each other in protein stability index: 0.70982 ± 0.0002 for the first, 0.736 ± 0.058 for the second.

Compared with LDVFSLASRPDG, LDVSGEVRVGRG is higher in protein stability index: 0.5928 ± 0.0053 for the first, 0.629 ± 0.013 for the second.

Compared with LELADGRCARSG, LELTSDWRAYVY is lower in protein stability index: 0.8 ± 0.065 for the first, 0.643 ± 0.052 for the second.

First: LESSLPIDSERC
Second: LEVAGVLCSRVC
The protein stability index of the first is higher: 0.675 ± 0.055 for the first, 0.56 ± 0.016 for the second.

Going from LEWGRGFGLWGG to LEYRSCDFIDRS, the protein stability index falls from 0.7823 ± 0.004 to 0.625 ± 0.057.

LFAGTFTEYPLS and LFFLRSSSRGLW are within error of each other in protein stability index: 0.641 ± 0.078 for the first, 0.736 ± 0.055 for the second.

LFHRAVVGRVRP and LFICETRLDSRY are within error of each other in protein stability index: 0.634 ± 0.013 for the first, 0.744 ± 0.13 for the second.

LFLYLGSGARAV and LFPCPSMTLPRL are within error of each other in protein stability index: 0.721 ± 0.019 for the first, 0.706 ± 0.017 for the second.

LFPFIPPRLPLP and LFPHSLLPPPFF are within error of each other in protein stability index: 0.687 ± 0.01 for the first, 0.73 ± 0.042 for the second.

First: LFPRCPPPPLTT
Second: LFPSSHFSLSLH
The protein stability index of the first is lower: 0.653 ± 0.053 for the first, 0.767 ± 0.033 for the second.

Going from LFPSVCSTSSFS to LFQFFSPCRIPE, the protein stability index rises from 0.676 ± 0.034 to 0.749 ± 0.011.

Going from LFRPSFFFFVCQ to LFRRPLLRPPPF, the protein stability index rises from 0.548 ± 0.0027 to 0.745 ± 0.024.

Going from LFSHGFLYILGG to LFSHLLFPWLSR, the protein stability index rises from 0.696 ± 0.017 to 0.7545 ± 0.0048.

First: LFSLPPRASFSL
Second: LFTSLYWAFRSR
The protein stability index of the first is higher: 0.773 ± 0.043 for the first, 0.679 ± 0.016 for the second.

LGAAFHSLTRLV and LGAMTQEADGTG are within error of each other in protein stability index: 0.617 ± 0.066 for the first, 0.639 ± 0.078 for the second.

LGARELTFALLR gave a protein stability index of 0.649 ± 0.0039.
